Results on 68 sequences are retold here after the domain aggregation screens of Martell et al. (2025).

A short description of the series: soluble fraction after stress (log2 fold change); higher = more stays soluble; pooled small domains, quantitative proteomics. The following applies: stress: 50 degC. In a few lines:
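Pooled custom libraries of small protein domains were each held under stress at 50°C. The read-out, high-throughput quantitative proteomics, tracked how much of each protein stayed soluble. This is reported as a base-two log fold change used to indicate aggregation propensity. Higher values mean more protein remains in solution.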
As for “HMRRSDLVTQGDEILKRLQWNQQQAKDFLNQHLKASSRQQLTDEQLLNFNMLLEEQLVKSME”, the “soluble fraction (log2)” value amounted to 0.103.

As for “HMRTIPDALIGRPYESVETAIVLEGLQAKRTEVFHPTIRPGTVIRLEPTSGSELLRDGVVEIFVSQGPETT”, the “soluble fraction (log2)” value was -0.159.

Regarding “HMGNHRNMSAEEEAAILAPFKARAEAGELVEISEIAKAYQSAVDHPISRGQIYFVLHRHGWRKV”, the “soluble fraction (log2)” value is -0.926.

For “HMAERVWASLLEIKNAVAIEDAKTLEDVDNSEKIAEERIAALNDDAKHPLAIAFIGKLRQDIAEKKIELA”, the “soluble fraction (log2)” value is 0.379.

As to “HMGGPRDVPYSTFLIEVEKGQVAEVTIQDHKITGTYKNSNEPFITNAPDDPDLVSRLIKYGVGVQAKPPE”, the “soluble fraction (log2)” value is -0.0153.

For “HMQARDQNVDEGKALLEKEFSRLALENLDRDKLANAVNYPTRDDMYAAIGAGDLRVGQVLHQAQQLF”, the “soluble fraction (log2)” value came out at 0.142.

As for “HMRKDWTPGAFVEAFVNDTPATRSTILAKAVSAGLSRWAADNLLRTADNDGLMVRQGSGKRNEPFTYRRGP”, the “soluble fraction (log2)” value is -0.196.

As to “HMDQILIHLKEGIDVTDVQPMLKALDLNVRMFNRDKNIIVISVLNRELDAIPQTIAALRPWEELFDSA”, the “soluble fraction (log2)” value is -0.00536.

As for “HMTNATVGQIKKLARASILYGNSNLSGNRYTYKANTTVTILQNISSNVDKIRVNVTGRVAYIDNSNYSSST”, the “soluble fraction (log2)” value is -3.56.

For the sequence “HMNVDALIGTKGIVVQPIRPFAVGQVKVNGQVWSAVGKTPETDIEQGREVKVHAIEGVKLVVTPT”, the “soluble fraction (log2)” value came to 0.251.

“HMNQSKYQTIADELKSKILSGEYPENTTIPPELQLQKDYQVSRHTIRQAIALLANEGFLRKEKGSGTYVDV”: the “soluble fraction (log2)” value is 0.0512.

With “HMSKPVYILINKPKGFLASSTDKKVKKSVNDLINISNLNKIYPFDNMGRTSSGLLLLSNDLYFKKHFKDKI”, the “soluble fraction (log2)” value worked out at 0.341.

With “HMKYKWLAGQLRRELLENGGKKGYKLPTELELARRYQLSRQTVRRALQLLEEEGLILRRQGSGAYATGKPP”, the “soluble fraction (log2)” value was -0.316.

For the sequence “HMDISAFDTEFIISKFGGIRPMAQKLGVPVSTVQGWKQRQTIPQNRMGDILEAAKNYNLELTP”, the “soluble fraction (log2)” value amounted to 0.0856.

Turning to “HMKDRDISNAVLNILSKDSDHNYNYKQIASVLGVKDPFVRKRIVSVLAQLTKNGQLEEISRGKYQIKN”, the “soluble fraction (log2)” value was -0.618.

For the sequence “HMGQERAVPDVKGQSFDMAQGNISRAGLKAVVTDSVYDSYARPGTVVEQSPIPLAKIKRGGTVYLTLVA”, the “soluble fraction (log2)” value is -0.105.

With “HMTGREIDQLFSVVNDLKAKGVGMVFISHHLDEIARIADSVSVLRDGGFVAEVPASTPEKKLVTLMVGRDI”, the “soluble fraction (log2)” value was -0.208.

As for “HMSERVVVPDLTGKDLVAAQSELREISLAGREEGPGDKVRRQFPVAGVKVPKDTVVILYTED”, the “soluble fraction (log2)” value amounted to 0.125.

For “HMGNLASGAYEQIKRRILSLEYLPGSILQERGLAEELGISRTPVREAIHRLSQEGWLKINSRKNIRVR”, the “soluble fraction (log2)” value was -1.98.

Regarding “HMTTGREGLIGAVGTVRQAIAPEGYVFVEGELWRAKSPAGPLEPGTTVRVIAIDGLTLTVMPAE”, the “soluble fraction (log2)” value is -0.348.

On to “HMDAEVEHLFRIIAELKEKNVAIIYISHKMDEIFRISDDITVYRDGEYIATDRAENLNVDKVIQLMVGREV”, for which the “soluble fraction (log2)” value was -0.339.

As for “HMQAPVVNHDLIKSFERQWREIKATAKGKVRSVNLSDARSILQSFLNTLQKGPGTDSLISSVQNELSLIA”, the “soluble fraction (log2)” value was -0.00186.

Regarding “HMTISGSDLKAQREALNIPLERIAKETRIRLSILQDLEDEEYSELSSSAQTKGFLRLYADYLSSHKQRLG”, the “soluble fraction (log2)” value is -0.415.

For “HMQDEREEIAVEDVVGMPLWQARKVIADQGFRVLDDGAGDIVIAQMPSGGGKLIEGGQVMLYTYTD”, the “soluble fraction (log2)” value came out at 0.186.

Take “HMSQDINVFIKTNPENATIIWDGESKGTNGIFKSNAGAHRLRIEMQGYESIDQDIQVSDKQFSFEYNLKKE”: the “soluble fraction (log2)” value is 0.152.

Consider “HMVKPKIILADIGMITETDVTLAKASQAVLIAFNVKPSKEAKKLAEDENIKISTYNIIYEVLDFVKKSMSG”, for which the “soluble fraction (log2)” value amounted to 0.12.

As to “HMIDRADLWEALRKLPEDTLKLFSLHFEKGMTHDEISKHTDIPVGTVKTKLRRGLIEARKLAREF”, the “soluble fraction (log2)” value is -0.795.

In the case of “HMSFVAYEEEKAIGMVRLIGDGGMSFYIKDFAVLPGHQGKGVGQMLLMELQQYLLEHKPADWAVSLE”, the “soluble fraction (log2)” value was -0.329.

Regarding “HMGSKQVSVPDVRNLDYERASQQLREAGFVVGDVLRIRDDRAPAGTVIAQSPAAPALVPENARVSLLVSSG”, the “soluble fraction (log2)” value turned out to be 0.251.

As to “HMPLTAASLQTYLRGVDYPASKQDLIAHARKSDAPEDAITVLEQYSEQTYRSAADVSAEFGS”, the “soluble fraction (log2)” value was 0.178.

As to “HMEMGNKIKELRTKLGITQEELSKTLNVSSQAVSKWENGGLPDLELIPEIAKYFNVTTDYLFDIK”, the “soluble fraction (log2)” value turned out to be 0.0658.

Turning to “HMKKMSFKEAFLKYVEIKDNPYNMESVKMLVSLQPLIVKAYSILGVDKVRRLNYVKTKIQDAIINGD”, the “soluble fraction (log2)” value was -1.9.

In the case of “HMEGRTVMATTAVNVRSGPGTSYKILGVLYPGHTAQQIGNTRYGWAQVTWKGHTAYIAARYLRDS”, the “soluble fraction (log2)” value is -2.41.

Take “HMHELKIEKVAEAPNGAMRLLLSDGSEWVLGVKSWNRLNLSLEKILDVNVLRALEKESQYHLLRTKALEL”: the “soluble fraction (log2)” value was -0.395.

Turning to “HMVQMKIRAYELEPNDFFIKQNMTYRVMRIQNGMIYAKHLLNSTPITFGAKSMEFVLWTGKYS”, the “soluble fraction (log2)” value is -2.36.

With “HMRKRLLQLVHIGKSQLGMDDETYRSLLSQQFYQNSAKNISYSELVKLVKILQQKGAKIRLPH”, the “soluble fraction (log2)” value is -1.9.

With “HMHFIMEYRIRAYVDELFESAPRTQRAYELKIELTQNLIDKYYALVSEGKSEQDAYNLTVMSIGDVREL”, the “soluble fraction (log2)” value was -0.298.

In the case of “HMLSLGIMEADMLKTGKHTISGISKATPEQRQKIDSDIEELKKKYPEKNITSKVENDNLIVESGVTAP”, the “soluble fraction (log2)” value stood at 0.278.

Take “HMQSSDQTDNIYENAVSIVLETGKASASHLQRVLGIDYNLAAHLIDKMEDGGLLSPPNYLGHRDVYGYT”: the “soluble fraction (log2)” value is 0.0916.

“HMDWVAYGAELRRRRLLAGWTVAELSRRINLSGMTIHQIEKGRGRLRPSELTLAKLAAALGMPTP”: the “soluble fraction (log2)” value was -3.47.

On to “HMSLQDYYQVLGVFYNAGDKEIKRRWKELINQYHPDLAQAKGASPEEIENYTLKMAEINNAYEQIMKSRKA”, for which the “soluble fraction (log2)” value came out at 0.0274.

“HMEYRVRDKMTDILELLTEHRGRIALRDAFPTGTREELLAAFLALLELTKMQTVIVYQDRLYDDIQIVMK”: the “soluble fraction (log2)” value was -0.204.

In the case of “HMTEQKNNEQQNAVNEKKQALKQLMEKGKEKGSLSYNEVNALLDKLEFTEDQKAIVYDQLHSEDIELQ”, the “soluble fraction (log2)” value is 0.193.

Take “HMDSLQDFAYEEIKKRIQNGEYAPGTKLNTQEISDSLGISRSPVLAAINRLIALGLVEATPRKGTTVA”: the “soluble fraction (log2)” value amounted to 0.0527.

“HMSSAYLTVRGIDIDVIYKDIKNLHIAVYPPFGRVRVAAPSHLDDDQVRLAVIQRLTWIKRQRERLRST”: the “soluble fraction (log2)” value was -1.41.

Consider “HMKAPLTFVIEGKEYEAFDQYKTGAELKQLAGIPLDTELFLSISKPYQDELIENEKQVNLARPETEYFFVK”, for which the “soluble fraction (log2)” value is -0.0489.

For “HMFWEGYLAARREQFLKDQQVLLGNEFRSNPDFWLEVASKEWAVVEERLSTGADVSEEVQETMGLDF”, the “soluble fraction (log2)” value was -2.16.

Take “HMDIYLDEVNRKILHLLSQGIKTRSLREYINLSMSAIEKRKKHMKELFLVEDGKDETLLNEARNKGF”: the “soluble fraction (log2)” value was -1.43.

With “HMSDDLIILGYSMLNNALKAFHIDPDSIKKKHWDKLAQDYHLKNKNQILTDIALGKRVNIMVAHQLTTIMD”, the “soluble fraction (log2)” value was -0.633.

In the case of “HMDKLSYALGLSMGHNFLGSGIKSLNVEDFAKGVEAVYKQEKPEISFDEAKKIINEFFSNLQDEIAE”, the “soluble fraction (log2)” value is -0.628.

Regarding “HMFLSQQDINRANAASVTDMGDIIRRTFERNAAEINGLELSDAEKKDAVKQMATLATTALKTAAGAVNPY”, the “soluble fraction (log2)” value was -0.132.

Take “HMLTKAEEQVMDYLWKLEKAFVKDILDEFPEPKPAYTTVSTMVRILEKKGMVGYTAYGKNHQYYPL”: the “soluble fraction (log2)” value was -1.84.

For “HMIKSEERIQNIKEYILEFQFTYHRTPTMAQIAEAVGTVKSNVYKYLSEMEERGILTRNKREIEINDTIQ”, the “soluble fraction (log2)” value was -0.819.

On to “HMALIGSNLRHLRNERKLSQQELADLIRVGRTTIANIEANLANPGHKTLLEIVKVFDITIDELLHTDLTK”, for which the “soluble fraction (log2)” value is -0.886.

Turning to “HMTETPDDLLAALKKNKKAQATFDAFSPSNKKEYILWITEAKTEATRTKRLETAIEWMSEGKARNW”, the “soluble fraction (log2)” value was -0.222.

Take “HMRPKVADIDYFDGKTFTIEDGSKHSITTSEAKKIYFYLVKNGYVDDESHVTDAYRSAATSGTLA”: the “soluble fraction (log2)” value is -0.0505.

Take “HMENIIFDIGFHKGEDTLFYLLKGYRVIAVDADPDLINEWQNIFKKYIENGKLLLLNYVISDT”: the “soluble fraction (log2)” value was -1.33.

Take “HMSVLDEVRKLSFHQRNAVFLFYFEGYSMKEIAQIFHVKEGTVSSWLTRARKQLRKQMEEEVLYDESLP”: the “soluble fraction (log2)” value is -0.526.

Take “HMDSAFVSDIRDAFDEAGVDSYRFFGTHSFKRGGVQLYRLLGVSDQEIKERGHWQTFSAYFAYVQA”: the “soluble fraction (log2)” value came to 0.218.

As for “HMNTLTKEDIQKAIDVIPIDFKSVVILNLVEGFSYKETAEILEIPIGTVMSRLHRGRKILQKLLWEYSSSK”, the “soluble fraction (log2)” value is -1.32.

As for “HMGGLSAEQKNGIQSVLKNFDPKNLTSADAKSITSEFKKLGVQPGKDLETTMAASGFDAKEVGRLAF”, the “soluble fraction (log2)” value turned out to be 0.0781.

On to “HMKQVEVESVIGKSEEAANSILTKAGLKVNIGYKEDSSKPTDTVLSQDPAPGEKVDEGTTVTIVVNNYKKP”, for which the “soluble fraction (log2)” value worked out at 0.0614.

As for “HMGTISKRINPSGTTVYRAVIRIRKNGYPNFTESRTFSKKSMAAEWVKRREAEIELNPDILFG”, the “soluble fraction (log2)” value was -2.13.

Turning to “HMNQYIFVLNEKGARITSFVDNTIPKEELIALAKQDYPNAADYIYSADGDSMLDEFMRGKLYVNGQFVAA”, the “soluble fraction (log2)” value was -0.69.

Turning to “HMGEEIRTWTDAQGRKIEARMSMLDGDQVLLELKDGRKIPYPLAKLSADDAHYARHFASASASD”, the “soluble fraction (log2)” value turned out to be 0.0254.

As to “HMETWKLYKRAYKKYYARYMKGNMSEADFKAWATQAAADRDAAIEQITPEIDAALKAQIIEQLREKLNR”, the “soluble fraction (log2)” value was -0.856.

Take “HMGGDFVEHLKDLASEAPVIRLVNTIIGRVIDLRASDIHLEPFDDGLHVRYRVDGVIHPGELVPPRLS”: the “soluble fraction (log2)” value is 0.0558.

In the case of “HMRTVLSDETYLRIREMLLTHDIAPGERINIDALARELDVSQTPVREALARLESEDLVTKEPLRGYTATK”, the “soluble fraction (log2)” value is -0.017.
